According to patent US20260060994A1, “GLYCOSYLATED COMPOSITIONS AND METHODS OF USE” (Cy Biopharma AG, priority 2023, published 2026):

Columns and labels:
[1] = Pharmacokinetic experiment in mice, plasma and brain, LC-MS/MS; format: in vivo, C57Bl/6J mice
Method: In a pharmacokinetic experiment in C57Bl/6J mice (3 animals per timepoint; schedule shown below) two example compounds, Cy1 (4-HO-EPT glycoside) and Cy2 (4-HO-DMT glycoside) were dosed at two different concentrations (20 mg/kg dose shown here) and the parent compounds and their de-glycosylated forms, 4-HO-EPT and psilocin (4-HO-DMT), respectively, were measured by LC-MS/MS in plasma and brain tissue samples. For comparison, psilocybin was dosed at 1.5 mg/kg orally and plasma and brain tissue concentrations of psilocin (4-HO-DMT) were measured. Samples were collected at four or five different timepoints (from 10-minutes post dosing up to 6-hours post dosing) following the test article administration.
Schedule of pharmacokinetic experiment shown below.
Results are reported in ng/mL for the concentration in plasma and in ng/g tissue for the concentration measured in brain samples.
Results: The graphs in FIG. 35, FIG. 36, FIG. 37, and FIG. 38 display the time course of concentrations of compounds as indicated. For each time point the data for the individual animals are plotted.

[2] = Glycosylation of 4-HO-MET by GLY enzymes (UDP-glucose), LC-UV/MS; format: biochemical; conditions: 0.5 mM 4-OH-MET, 1.25 mM UDP-glucose, 25% (v/v) GLY enzyme, 24 h at 30° C.; estimate from UV peak areas
Method: 4-HO-MET was dissolved in 100% (v/v) DMSO to a concentration of 10 mM. The solution was stored at −20° C. prior to use.
FastAP phosphatase (1 U/uL) from ThermoFisher Scientific (catalog no. EF0651).
GLY enzyme suspensions contain 10 mM Tris-HCl at pH7.4, 250 mM imidazole and 50% (v/v) glycerol.
(§1) The assay conditions were: • 100 mM Tris-HCl, pH 7.4 • 5 mM MgCl2 • 1 mM KCl • 1.25 mM UDP-glucose • 0.5 mM 4-OH-MET • 5% (v/v) DMSO • 0.1 U/uL Fast AP phosphatase • 25% (v/v) GLY enzyme
(§2) Incubation was 24 house at 30° C. Reactions were terminated adding 3 volumes of 75% (v/v) ethanol.
(§3) LC separation was performed using an Agligen 1290 Infinity II UHPLC equipped with a Phenomenex Kinetex XB-C18 column (1.7 um, 100 angstroms, 100×2.1 mm) and 4-HO-MET was detected by absorbance at 210 nm and 268 nm with an Agilent 1260 Infinity II DAD.
(§4) 0.1% Formic acid in water (A) and 0.1% Formic acid in acetonitrile (B) were used as the mobile phases for the elution gradient, with a flow rate of 0.4 ml/min. Retention time for 4-HO-MET using this type of instrument under these condition was 2.6 min. The system was coupled to an Ultivo Triple Quadrupole MS. To verify the presence of possible glycoside products, as SIM (Selected Ion Monitoring) method was used on the MS to analyse for the m/z 381 (theoretical mass to chart ratio of 4-HO-MET-glucoside) and m/z 219 (theoretical mass to charge ratio of 4-HO-MET).
As standard, 4-HO-MET solutions at a concentrations of 500, 250, 125, 62.5, and 31.25 uM were prepared from the 10 mM stock and used for caliboration.
A representative example of the chromatograms obtained with a wavelength of 268 nm for the standard solutions resuspended in the reaction buffer, and the corresponding MS-SIM signal, is shown in FIG. 16. The peak corresponding to 4-HO-MET is indicated.
When analyzing the GLY reactions, 30 of them gave an additional peak with retention time 2.2 min (i.e. in the expected region for a 4-HO-MET glucoside) and molecular mass compatible with the expected glucoside product, together with a corresponding decrease in substrate concentration, compared to the no-enzyme controls.
The method was repeated using various GLY enzymes to produce 4-HO-MET glucosides.
(§5) The enzymes giving the additional peak putatively corresponding to the 4-HO-MET-β-D-glucoside are listed below. […] A correct quantification of the product is not possible without a standard for the specific molecule. However, based on the assumption that the ratio area-to-concentration in the UV chromatograms will be similar to 4-HO-MET, estimates of the relative abundance for the additional peak are also given, expressed as percentage of converted 4-HO-MET. GLY enzymes hits are ranked according to their estimated conversion efficiency.

[3] = Glycosylation of 4-OH-EPT by GLY enzymes (UDP-glucose), LC-UV/MS; format: biochemical; conditions: conditions of Examples 1 and 2 repeated for 4-OH-EPT; estimate from UV peak areas
Method: as §1, §2, §3, §4, §5
The experiments described in Examples 1 and 2 above were repeated for 4-OH-EPT.
Below is the corresponding data for 4-OH-EPT.

[4] = Glycosylation of 4-OH-MiPT by GLY enzymes (UDP-glucose), LC-UV/MS; format: biochemical; conditions: conditions of Examples 1 and 2 repeated for 4-OH-MiPT; estimate from UV peak areas
Method: as §1, §2, §3, §4, §5
(§6) The experiments described in Examples 1 and 2 above were repeated for 4-OH-MiPT, 4-HO-DMT and 5-HO-DMT
Below is the corresponding data for 4-OH-MiPT.

[5] = Glycosylation of 4-OH-DMT by GLY enzymes (UDP-glucose), LC-UV/MS; format: biochemical; conditions: conditions of Examples 1 and 2 repeated for 4-HO-DMT; estimate from UV peak areas
Method: as §1, §2, §3, §4, §5, §6
(§7) Below is the corresponding data for 4-OH-DMT and 5-HO-DMT.

[6] = Glycosylation of 5-HO-DMT by GLY enzymes (UDP-glucose), LC-UV/MS; format: biochemical; conditions: conditions of Examples 1 and 2 repeated for 5-HO-DMT
Method: as §1, §2, §3, §4, §5, §6, §7

Molecule	period of exposure in brain ([1]; higher doses (20 mg/kg p.o.), brain, as compared to psilocybin 1.5 mg/kg p.o.)	period of exposure in plasma ([1]; higher doses (20 mg/kg p.o.), plasma, as compared to psilocybin 1.5 mg/kg p.o.)	time to peak brain concentration ([1]; p.o. single dose, brain, as compared to the administration of psilocybin 1.5 mg/kg p.o.)	time to peak plasma concentration ([1]; p.o. single dose, plasma, as compared to the administration of psilocybin 1.5 mg/kg p.o.)	4-OH-MET GLY % (percentage of converted 4-HO-MET) [2]	4-OH-EPT GLY % (percentage of converted 4-OH-EPT) [3]	4-OH-MiPT GLY % (percentage of converted 4-OH-MiPT) [4]	4-OH-DMT GLY % [5]	5-OH-DMT GLY % [6]
CCCN(CC)CCc1c[nH]c2cccc(O[C@@H]3O[C@H](CO)[C@@H](O)[C@H](O)[C@H]3O)c12 [Cy1, 4-HO-EPT glycoside]	extended period of exposure	extended period of exposure	extended	extended	–	–	–	–	–
GLY163: glycosyltransferase (UGT), SEQ ID NO: 22 (protein) MTGELIFIPMPSLSHIASTMEIAKLLVHRDDRLSITVLLISSQYTTSITTYINSLIASSDYDRIRFIHLPELDSEEEPKRPFMSVIDDNKPIVKEAVTNLALSFDPSHRLAGFVIDMFCVGMIEVADELGLPSYPFFTSSTSFLALQFHVQTLADEEEVDITEFKNSDVMLPIPGLVNPLPAKTILPSAMLNKDWLPYVLNGARGFRKTKGIMVNSFAEIESNAVTSLSNSTVPPVYTVGPIINFKGDGQDSDTCTAHKYSNIMTWLDDQPPSSVLFLCFGSLGSFDEEQVKEIARALEGSGHRFLWSLRRPPPKDKTMSFPTEYENFEEVLPEGFVDRTVGMGKVMGWAPQVAVLAHPSIGGFVTHCGWNSILESVWFGVPMAAWPLYAEQQFNAFHMVVELGLAVEIKMDYRKDYAILGLQEERVSAEVIEKGIRCLMEEDNDARKKVKEMSEISRKALMDGGSSHAVLGQFIEDVMNNISA	–	–	–	–	40.5%	46.3%	61.6%	10.6%	–
GLY153: glycosyltransferase (UGT), SEQ ID NO: 20 (protein) MAETDSPPHVAILPSPGMGHLIPLVELAKRLVHQHNLSVTFIIPTDGSPSKAQRSVLGSLPSTIHSVFLPPVNLSDLPEDVKIETLISLTVARSLPSLRDVLSSLVASGTRVVALVVDLFGTDAFDVAREFKASPYIFYPAPAMALSLFFYLPKLDEMVSCEYSEMQEPVEIPGCLPIHGGELLDPTRDRKNDAYKWLLHHSKRYRLAEGVMVNSFIDLERGALKALQEVEPGKPPVYPVGPLVNMDSNTSGVEGSECLKWLDDQPLGSVLFVSFGSGGTLSFDQITELALGLEMSEQRFLWVARVPNDKVANATYFSVDNHKDPFDFLPKGFLDRTKGRGLVVPSWAPQAQVLSHGSTGGFLTHCGWNSTLESVVNAVPLIVWPLYAEQKMNAWMLTKDVEVALRPKASENGLIGREEIANIVRGLMEGEEGKRVRNRMKDLKDAAAEVLSEAGSSTKALSEVARKWKNHKCTQDCN	–	–	–	–	6%	–	–	–	5%
GLY91: glycosyltransferase (UGT), SEQ ID NO: 12 (protein) MGKQEDAELVIIPFPFSGHILATIELAKRLISQDNPRIHTITILYWGLPFIPQADTIAFLRSLVKNEPRIRLVTLPEVQDPPPMELFVEFAESYILEYVKKMVPIIREALSTLLSSRDESGSVRVAGLVLDFFCVPMIDVGNEFNLPSYIFLTCSAGFLGMMKYLPERHREIKSEFNRSFNEELNLIPGYVNSVPTKVLPSGLFMKETYEPWVELAERFPEAKGILVNSYTALEPNGFKYFDRCPDNYPTIYPIGPILCSNDRPNLDLSERDRILKWLDDQPESSVVFLCFGSLKSLAASQIKEIAQALELVGIRFLWSIRTDPKEYASPNEILPDGFMNRVMGLGLVCGWAPQVEILAHKAIGGFVSHCGWNSILESLRFGVPIATWPMYAEQQLNAFTIVKELGLALEMRLDYVSEYGEIVKADEIAGAVRSLMDGEDVPRRKLKEIAEAGKEAVMDGGSSFVAVKRFIDGL	–	–	–	–	20.7%	5.4%	–	–	1%
GLY170: glycosyltransferase (UGT), SEQ ID NO: 28 (protein) MKKINLVVIPFAGVGHLVSTIEFIKRLLSRDDRFSVTILVIKSPLEHSLDPNTSPPSLPSSHPHIQFINVRSLNPPPIEVFLKSPEKYFTLYIESYKLKVKEIIVDHVLPNSAPLGGLFLDMFSTSMVDVAQELGVPSYVFLTSGAGFLGFVLYLQTRHDRGGAEFELSDIESYIPSYVNPVPSRVLPSLAFNREGGYVSFVNVARNMKKTKGIIVNTVFELESHAISSLLMDGATPPVYAVGPLIDHKGESHFRTDQAKRDKIIKWLDDQPTKSVIFLCFGSFGSFGVPQLREIAIGLEQSGARFLWSIRQAKSIFEMPIECEKPEEFLPQGFLDRTKELGMICGWTPQIEVLAHRAIGGFVSHCGWNSILESLWHGVPIVTWPLYAEQQINAFQIVKDLGLGVELRLDYRRDGGDVDVVMRDEIEKAVRYVMDGDSEVRQRVQEASEKCRKAVVEGGSSFSSIGSLIEAILANIS	–	–	–	–	31.6%	23.4%	38.8%	15.7%	–
GLY70: glycosyltransferase (UGT), SEQ ID NO: 2 (protein) MAKQQEAELIFIPFPIPGHILATIELAKRLISHQPSRIHTITILHWSLPFLPQSDTIAFLKSLIETESRIRLITLPDVQNPPPMELFVKASESYILEYVKKMVPLVRNALSTLLSSRDESDSVHVAGLVLDFFCVPLIDVGNEFNLPSYIFLTCSASFLGMMKYLLERNRETKPELNRSSDEETISVPGFVNSVPVKVLPPGLFTTESYEAWVEMAERFPEAKGILVNSFESLERNAFDYFDRRPDNYPPVYPIGPILCSNDRPNLDLSERDRILKWLDDQPESSVVFLCFGSLKSLAASQIKEIAQALELVGIRFLWSIRTDPKEYASPNEILPDGFMNRVMGLGLVCGWAPQVEILAHKAIGGFVSHCGWNSILESLRFGVPIATWPMYAEQQLNAFTIVKELGLALEMRLDYVSEYGEIVKADEIAGAVRSLMDGEDVPRRKLKEIAEAGKEAVMDGGSSFVAVKRFIDGL	–	–	–	–	98.6%	80.5%	58.4%	89.3%	6%
GLY74: glycosyltransferase (UGT), SEQ ID NO: 6 (protein) MRNVELIFIPTPTVGHLVPFLEFARRLIEQDDRIRITILLMKLQGQSHLDTYVKSIASSQPFVRFIDVPELEEKPTLGSTQSVEAYVYDVIERNIPLVRNIVMDILTSLALDGVKVKGLVVDFFCLPMIDVAKDISLPFYVFLTTNSGFLAMMQYLADRHSRDTSVFVRNSEEMLSIPGFVNPVPANVLPSALFVEDGYDAYVKLAILFTKANGILVNSSFDIEPYSVNHFLQEQNYPSVYAVGPIFDLKAQPHPEQDLTRRDELMKWLDDQPEASVVFLCFGSMARLRGSLVKEIAHGLELCQYRFLWSLRKEEVTKDDLPEGFLDRVDGRGMICGWSPQVEILAHKAVGGFVSHCGWNSIVESLWFGVPIVTWPMYAEQQLNAFLMVKELKLAVELKLDYRVHSDEIVNANEIETAIRYVMDTDNNVVRKRVMDISQMIQRATKNGGSSFAAIEKFIYDVIGIKP	–	–	–	–	36%	7%	19.3%	22.4%	–
